Assay results from article PMC2630241.
Where “and” joins values, the source holds several entries; their conditions need not be identical. Equal values may be shown once.

What was measured:
[1] = biological target: Selenomethionine substituted TRPM7cc (rat) (UniProt Q925B3); assay: crystal structure
[2] = biological target: TRPM7 coiled-coil assembly domain (TRPM7cc), rat TRPM7 residues 1230-1282 (rat) (UniProt Q925B3); assay: SEC
[3] = biological target: TRPM7 coiled-coil assembly domain (TRPM7cc), rat TRPM7 residues 1230-1282 (rat) (UniProt Q925B3); assay: crystal structure
[4] = biological target: TRPM7 coiled-coil assembly domain (TRPM7cc), rat TRPM7 residues 1230-1282 (rat) (UniProt Q925B3); assay: AUC

| stoichiometry N [1] | stoichiometry N [2] | stoichiometry N [3] | stoichiometry N [4] | Substance |
| --- | --- | --- | --- | --- |
| 4 | – | – | – | Selenomethionine substituted TRPM7cc (from UniProt Q925B3 1230-1282) (domain or fragment) |
| – | 4 | 4 | 4.1 and 3.7 | TRPM7 coiled-coil assembly domain (TRPM7cc), rat TRPM7 residues 1230-1282 (from UniProt Q925B3 1230-1282) (domain or fragment) |
